Values quoted from earlier work, collected in PMC8410215.

Molecular target: Glu66 (UniProt position 148, FTKKMEENAKK)
Details: folded protein with Glu66 buried in the interior; water molecules penetrate to form a small channel around the residue

For “Staphylococcal nuclease V66E variant (Staphylococcus aureus; V66E)”, the pKa is listed as 8.8.
